Target: T1, mouse HMGB1 (produced in E. coli (Sigma)) (mouse, UniProt P63158 1-215, limits assumed)
T1 construct: Bought reagent; also called late cytokine (HMGB1); recombinant HMGB1
T1 sequence (looked up): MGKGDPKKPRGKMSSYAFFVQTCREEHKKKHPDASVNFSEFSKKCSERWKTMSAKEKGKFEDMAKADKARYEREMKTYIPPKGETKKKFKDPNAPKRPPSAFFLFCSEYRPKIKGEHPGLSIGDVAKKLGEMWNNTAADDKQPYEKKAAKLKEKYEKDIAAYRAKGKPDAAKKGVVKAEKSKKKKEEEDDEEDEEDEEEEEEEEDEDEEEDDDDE
Test: agglutination of Ter119-TM loaded mouse RBCs after HMGB1 and anti-HMGB1 antibody
Method: Mouse and human RBCs were washed in PBS/3% BSA buffer, resuspended in the same buffer to 10% hematocrit and incubated with Ter119-TM (final concentration […]) for 1 h. […] Then cells were washed 3 times with PBS/BSA buffer and equimolar amount of mouse HMGB1 (produced in E. coli (Sigma)) was added to the assay for 30 min at room temperature. Then RBC were washed with PBS/BSA and brought to the final hematocrit of 1% and the monoclonal Ab to mouse HMGB1 (Sigma, dilution as per manufacturer) was added to the assay placed into a V-shaped plate (total volume-100 μl).

- binding result: binds
B1: Ter119scFv-TM (thrombomodulin) fusion protein (other)
chain: RSPWPGVPTSQVKLQESGGGLVQPGGSLKLSCVASGFTFRDHWMNWVRQAPGKTMEWIGDIRPDGSDTNYAPSVRNRFTISRDNARSILYLQMSNMRSDYTATYYCVRDSPTRAGLMDAWGQGASVTVLTGGGGSGGGGSGGGGSDIQMIQSPSVLSASVGDRVTLNCKASQNINKYLNWYQQKLGEAPKVLIYNTNNLQTGIPSRFSGSGSGTDFTLTISSLQPEDFATYFCFQHYTWPTFGGGTKLELKRASSSSGSSSSGAAALSALAKLQPTGSQCVEHECFALFQGPATFLDASQACQRLQGHLMTVRSSVAADVISLLLSQSSMDLGPWIGLQLPQGCDDPVHLGPLRGFQWVTGDNHTSYSRWARPNDQTAPLCGPLCVTVSTATEAAPGEPAWEEKPCETETQGFLCEFYFTASCRPLTVNTRDPEAAHISSTYNTPFGVSGADFQTLPVGSSAAVEPLGLELVCRAPPGTSEGHWAWEATGAWNCSVENGGCEYLCNRSTNEPRCLCPRDMDLQADGRSCARPVVQSCNELCEHFCVSNAEVPGSYSCMCETGYQLAADGHRCEDVDDCKQGPNPCPQLCVNTKGGFECFCYDGYELVDGECVELLDPCFGSNCEFQCQPVSPTDYRCICAPGFAPKPDEPHKCEMFCNETSCPADCDPNSPTVCECPEGFILDEGSVCTDIDECSQGECFTSECRNFPGSYECICGPDTALAGQISKDCDPIPVREDTKEEEGSGEPPVSPTPGSPTGPPSARPVHSDYKDHDGDYKDHDIDYKDDDDK
notes: Expressed in Drosophila S2 cells from a pMT/BiP/V5-HisA plasmid; Some assays used it directly from S2 cell medium; also called Ter119-TM
